According to patent publication US9540424B2, “Serum albumin binding molecules” (BRISTOL-MYERS SQUIBB COMPANY, priority 2010, dated 2017):
“Also recorded” adds a separate entry of the source. Read-outs that look alike come from different tables or passages of the source. No end group written: not given here.

Key:
anesthetized rats = experiment: Blood pressure in anesthetized rats after intravenous delivery; type: in vivo, rat; settings: APLNv4 60 μg/kg, SABA-APLNv2 600 μg/kg
Text: Potential explanations for the absence of activity with the SABA-APLNv2 construct can include lessened potency due to poorer productive collision frequency, steric hindrance, or peptide-PKE annealing.

human NPY Y4 receptor = target: T1, human NPY Y4 receptor (Homo sapiens, UniProt P50391); experiment: GTPγS binding functional assay: NPY Y4 receptor membranes; type: biochemical
T1 construct: expressed in transfected cells; host or cells: CHO cells (membrane preparation)
T1 sequence (P50391 whole entry): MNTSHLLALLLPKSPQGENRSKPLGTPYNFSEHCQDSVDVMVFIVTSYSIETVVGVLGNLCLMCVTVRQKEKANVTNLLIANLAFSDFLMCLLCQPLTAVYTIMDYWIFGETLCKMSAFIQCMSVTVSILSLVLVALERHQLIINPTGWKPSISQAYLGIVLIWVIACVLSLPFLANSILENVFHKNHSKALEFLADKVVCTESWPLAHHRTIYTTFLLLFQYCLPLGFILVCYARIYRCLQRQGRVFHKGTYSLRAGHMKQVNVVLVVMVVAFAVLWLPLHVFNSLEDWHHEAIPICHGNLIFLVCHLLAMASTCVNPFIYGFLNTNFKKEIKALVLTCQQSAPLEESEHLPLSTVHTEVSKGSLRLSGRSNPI
Text: Peptide YY (PYY) and pancreatic polypeptide (PP) are native satiety factors secreted from intestine and pancreas, respectively, in response to food ingestion, and are reduced upon fasting. PYY and PP may both be isolated in their full-length form which are 36-residue peptide amides. PYY can also be further cleaved by the enzyme DPPIV into a shorter biologically active form PYY(3-36). Peripheral injection of PYY(3-36) or PP causes reduction in food intake and body weight in animal models and in humans. Patients with morbid obesity have both reduced basal and meal-stimulated PYY(3-36) and/or PP levels. In contrast, patients with anorexia, or weight loss after bypass surgery, have higher than normal plasma PYY(3-36) and/or PP. Agonism of PYY(3-36) and PP are of great therapeutic value in treating obesity and metabolic diseases. NPY Y2 and Y4 are receptors with the highest affinity to PYY(3-36) and PP, respectively. NPY receptors belong to the G-protein coupled receptor family. Upon agonist stimulation, the NPY receptor may stimulate the down-streamed G-protein, exchanging its bound GDP for a GTP. […]
One T150 flask of recombinant CHO cells over-expressing human NPY Y2 or Y4 receptors were grown in F-12 medium (HAM, with L-glutamine) with G418 at 0.5 mg/ml until confluent. […] Protein concentration was measured and aliquots were stored at −80° C. until use. […]

HEK parental cells = experiment: cAMP levels in HEK parental cells; type: cell-based, human
rat serum albumin = rat serum albumin (Rattus norvegicus, UniProt P02770); experiment: SABA1.2 binding to rat serum albumin; settings: up to 1 μM
Chain of rat serum albumin (P02770 25-608): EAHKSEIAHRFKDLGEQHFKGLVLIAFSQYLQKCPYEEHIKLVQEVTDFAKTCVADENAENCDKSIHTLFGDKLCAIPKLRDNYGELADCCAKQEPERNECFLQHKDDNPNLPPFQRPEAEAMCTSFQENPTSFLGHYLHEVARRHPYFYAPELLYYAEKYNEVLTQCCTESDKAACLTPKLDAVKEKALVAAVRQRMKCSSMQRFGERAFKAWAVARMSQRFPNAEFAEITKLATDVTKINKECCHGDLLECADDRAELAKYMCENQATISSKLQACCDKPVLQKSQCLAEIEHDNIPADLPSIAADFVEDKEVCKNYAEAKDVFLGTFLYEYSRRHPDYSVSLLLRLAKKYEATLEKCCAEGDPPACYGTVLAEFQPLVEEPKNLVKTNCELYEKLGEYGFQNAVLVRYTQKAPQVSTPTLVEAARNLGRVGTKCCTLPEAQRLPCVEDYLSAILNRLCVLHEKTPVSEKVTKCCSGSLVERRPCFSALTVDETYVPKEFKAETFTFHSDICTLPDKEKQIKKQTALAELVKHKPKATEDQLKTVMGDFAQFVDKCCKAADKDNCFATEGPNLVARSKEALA

[1] = Preliminary formulation screen and stability of SABA1.2
[2] = cynomolgus monkey, in vivo
Method: The pharmacokinetics and bioavailability were also evaluated in a three-week, single-dose pre-toxicology study that included both intravenous and subcutaneous administration arms.
Non-compartmental analyses using WinNonlin software were performed to evaluate pharmacokinetic parameters.

[3] = NOEL of SABA1.2 in cyno monkeys; type: in vivo; settings: IV, dosed twice weekly for 5 doses
Method: The NOEL (No observed effective level) in cyno monkeys is 30 mg/kg IV when dosed twice weekly for 5 doses. […] Thus, ample safety factors have been taken into consideration for the dosing levels in this study.”

MuSA = MuSA (Mus musculus, UniProt P07724); experiment: Biacore kinetics of SABAs on immobilized serum albumin: MuSA; type: binding; settings: HBS-P buffer
Chain of MuSA (P07724 25-608): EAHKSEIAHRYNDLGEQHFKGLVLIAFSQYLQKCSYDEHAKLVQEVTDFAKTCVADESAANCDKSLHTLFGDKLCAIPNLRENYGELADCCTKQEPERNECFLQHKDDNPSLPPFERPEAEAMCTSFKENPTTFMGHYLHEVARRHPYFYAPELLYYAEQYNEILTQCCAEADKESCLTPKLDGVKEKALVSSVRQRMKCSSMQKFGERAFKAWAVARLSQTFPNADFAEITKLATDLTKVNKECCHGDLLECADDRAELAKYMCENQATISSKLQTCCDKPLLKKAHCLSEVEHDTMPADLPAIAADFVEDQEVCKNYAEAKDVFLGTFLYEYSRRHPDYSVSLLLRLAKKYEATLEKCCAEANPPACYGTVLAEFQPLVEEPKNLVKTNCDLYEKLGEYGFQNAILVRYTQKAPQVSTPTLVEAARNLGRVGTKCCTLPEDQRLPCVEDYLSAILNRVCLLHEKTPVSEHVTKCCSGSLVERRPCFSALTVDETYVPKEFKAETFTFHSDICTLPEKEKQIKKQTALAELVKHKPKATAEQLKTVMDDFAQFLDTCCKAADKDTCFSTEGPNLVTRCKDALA

RhSA = RhSA (Macaca mulatta, UniProt Q28522); experiment: Biacore kinetics of SABAs on immobilized serum albumin: RhSA; type: binding, rhesus; settings: Rhesus albumin
Chain of RhSA (Q28522 17-600): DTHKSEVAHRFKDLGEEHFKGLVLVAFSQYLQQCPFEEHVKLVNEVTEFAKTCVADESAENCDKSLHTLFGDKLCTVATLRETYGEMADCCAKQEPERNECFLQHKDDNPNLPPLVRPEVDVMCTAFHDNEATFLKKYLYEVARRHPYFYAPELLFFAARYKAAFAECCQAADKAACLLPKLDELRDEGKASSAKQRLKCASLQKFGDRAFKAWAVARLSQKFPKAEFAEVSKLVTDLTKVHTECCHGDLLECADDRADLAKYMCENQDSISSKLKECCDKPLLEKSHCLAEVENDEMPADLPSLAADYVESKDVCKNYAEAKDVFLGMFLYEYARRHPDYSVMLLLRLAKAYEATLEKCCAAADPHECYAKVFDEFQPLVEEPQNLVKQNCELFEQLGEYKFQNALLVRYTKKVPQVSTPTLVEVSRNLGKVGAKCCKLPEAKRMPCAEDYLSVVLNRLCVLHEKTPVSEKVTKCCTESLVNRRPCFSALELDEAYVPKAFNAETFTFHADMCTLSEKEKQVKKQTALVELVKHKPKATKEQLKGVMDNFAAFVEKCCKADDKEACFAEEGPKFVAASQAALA
Method: In addition, binding to albumin was carried out under various pH conditions ranging from pH 5.5 to pH 7.4.

HSA = HSA (Homo sapiens, UniProt P02768)
Human serum albumin = target: T2, Human serum albumin (Homo sapiens, UniProt P02768); experiment: SPR (ProteOn XPR36) binding of SABA-neuropeptide fusions to Human Serum Albumin; settings: 25° C., average of two experiments
T2 construct: purchased Novozymes Recombumin
Method: Surface Plasmon Resonance (SPR) is a direct binding technique by which molecular interactions can be observed in real time. For these experiments, SPR binding studies were performed using a ProteOn XPR36 instrument (BioRad Laboratories). The running buffer, phosphate buffered saline 0.05% Tween 20 pH 7.4, was purchased from Teknova (cat #P1192) and all experiments were run at 25° C. Human serum albumin was directly immobilized on a BioRad GLC chip via amine coupling as per manufacturer's guidelines using amine coupling reagents purchased from BioRad Laboratories. Human serum albumin was purchased from Novozymes (Recombumin™). About 5000 resonance units (RU) of human serum albumin were immobilized onto 4 separate lanes of the GLC chip surface. For each analyte, five concentrations ranging from 15.6 nM to 250 nM were injected over the surface at 30 μl/min for 240 seconds. The dissociation was monitored for 600 seconds. The surface was regenerated with 100 mM HCl. The resultant data were fitted to a Langumuir 1:1 binding model using the ProteOn Manager Software. The experiment was repeated with a different concentration range. In this second experiment, 5 concentrations ranging from 500 nM to 32 nM were injected over the surfaces, and the data analyzed as above. The KD is the disassociation constant. Smaller numbers indicate tighter binding to serum albumin. Molecules covalently attached to SABA that bind to serum albumin display longer in vivo pharmokinetic half-lives, as described earlier with respect to SABA-FGF-21 fusions.

## APLNv4: Apelin peptide variant fused in SABA-APLNv2 (QRPRLSHKGPMPF)
Anesthetized rats
  effect on blood pressure: robust hypotensive effect

## APLEPMYPGDYATPEQMAQYETQLRRYINTLTRPRY-NH2 [PP Control Peptide]
Human NPY Y4 receptor
  Efficacy: 100
Human NPY Y4 receptor; read-out: Potency (EC50)
  EC50: 1.7 nM

## KCNTATCATQRLANFLVRSSNNLGPVLPPTNVGSNTY [Amylin Control Peptide, reference compound]
HEK parental cells
  effect on cAMP levels in the HEK parental cells: no significant effect

B1: SABA1.2: “core 1” 10Fn3 comprising an (ED)5 extension; SEQ ID NO: 90 (protein)
chain: MGVSDVPRDLEVVAATPTSLLISWHSYYEQNSYYRITYGETGGNSPVQEFTVPYSQTTATISGLKPGVDYTITVYAVYGSKYYYPISINYRTEIEDEDEDEDED
Rat serum albumin
  interaction with rat serum albumin: No measurable interaction
[1]; 10 mM succinic acid, 8% sorbitol, 5% glycine, pH 6.0, 1.25 mg/mL protein
  protein melting temperature by DSC: 75 °C
[1]; 4° C.
  level of aggregation after one month: 1.6%
[1]; 4° C. and ambient temperature, no precipitation or increase in aggregation
  solubility in the formulation: at least 20 mg/mL
[1]; 25° C.
  level of aggregation after one month: 3.8%
[1]; formulation pH 6.0, 5 mg/mL
  initial aggregate level: 1.2%
[2]; 1 mg/kg
  Bioavailability (F): 0.7
[2]; iv, 10 mg/kg
  AUCall (hr * nmol/L): 5,609,457 hr * nmol/L
  Vz: 0.03 L/kg
  beta T1/2: 143 h
[2]; sc, 1 mg/kg
  AUCall (hr * nmol/L): 251,339 hr * nmol/L
  Vz: 0.062 L/kg
  beta T1/2: 134 h
[3]
  NOEL (No observed effective level): 30 mg/kg
MuSA; 25° C., up to 1 μM
  binding to Mouse albumin: No measurable interaction; also recorded: no observable binding
MuSA; 37° C.
  binding to Mouse albumin: no observable binding
RhSA; 25° C., HBS-P buffer
  ka: 6600 M⁻¹ s⁻¹
  kd (1/s): 3.78 ± 0.45E−03 1/s
RhSA; 37° C., HBS-P buffer
  ka: 18900 M⁻¹ s⁻¹
  kd: 0.0185 s⁻¹
RhSA; pH 5.5, MES buffer
  ka: 7570 M⁻¹ s⁻¹
  kd: 0.00272 s⁻¹
RhSA; pH 7.4, MES buffer
  ka: 6160 M⁻¹ s⁻¹
  kd: 0.00295 s⁻¹
HSA; Human albumin, 25° C., HBS-P buffer
  kd (1/s): 4.43 ± 0.65E−04 1/s
HSA; Human albumin, 37° C., HBS-P buffer
  kd: 0.000815 s⁻¹
HSA; Human albumin, pH 5.5, MES buffer
  kd: 0.00027 s⁻¹
HSA; Human albumin, pH 7.4, MES buffer
  kd: 0.000388 s⁻¹
HSA; pH 5.5
  ka: 9440 M⁻¹ s⁻¹
HSA; pH 7.4
  ka: 9260 M⁻¹ s⁻¹

B2: SABA1-AMYv25: SEQ ID NO: 328; SABA1.7-(ED)5G-Cys conjugated to Maleimide-PEG20-Amylin-CONH2 (conjugate)
chain: MGVSDVPRDLEVVAATPTSLLISWHSYYEQNSYYRITYGETGGNSPVQEFTVPYSQTTATISGLKPGVDYTITVYAVYGSKYYYPISINYRTEIEDEDEDEDEDGC
modifications: Maleimide-PEG20-Amylin-CONH2 conjugated via Cys
HEK parental cells
  effect on cAMP levels in the HEK parental cells: no significant effect
Human serum albumin
  Koff (1/s): 2.41 10^−4 1/s
  Kon (1/Ms): 9.34 10^3 1/Ms
